From article PMC4829432, “T-box3 is a ciliary protein and regulates stability of the Gli3 transcription factor to control digit number” (eLife, 2016)
Blank lines part the entries; values can stand above or below the molecule they belong to.

T1: Suppressor of fused (Sufu), endogenous mouse protein (mouse (endogenous in E10.5 embryos), UniProt Q9Z0P7 1-484)
T1 construct: Suppressor of fused (Sufu), mouse, endogenous in E10.5 embryos; source: endogenous, E10.5 mouse whole embryo lysate (control or Tbx3 null)
T1 sequence (looked up): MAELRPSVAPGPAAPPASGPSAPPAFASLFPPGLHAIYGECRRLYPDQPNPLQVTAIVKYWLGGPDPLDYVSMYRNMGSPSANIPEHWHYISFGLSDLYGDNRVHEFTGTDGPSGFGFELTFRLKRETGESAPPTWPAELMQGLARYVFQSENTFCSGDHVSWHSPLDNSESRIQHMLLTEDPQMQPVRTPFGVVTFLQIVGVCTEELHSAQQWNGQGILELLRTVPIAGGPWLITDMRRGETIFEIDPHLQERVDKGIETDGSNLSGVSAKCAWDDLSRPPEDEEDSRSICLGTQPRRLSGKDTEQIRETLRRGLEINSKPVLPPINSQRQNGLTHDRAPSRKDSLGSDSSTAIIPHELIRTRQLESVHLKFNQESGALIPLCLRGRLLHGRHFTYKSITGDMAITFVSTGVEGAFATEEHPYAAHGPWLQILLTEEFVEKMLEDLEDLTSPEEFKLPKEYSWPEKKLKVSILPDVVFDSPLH

B1: full length Gli3 (Gli3FL), endogenous mouse protein (natural protein, mouse (endogenous in E10.5 embryos), UniProt Q61602 1-1583, looked up)
chain: MEAQAHSSTATERKKAENSIGKCPTRTDVSEKAVASSTTSNEDESPGQIYHRERRNAITMQPQSVQGLNKISEEPSTSSDERASLIKKEIHGSLPHLAEPSLPYRGTVFAMDPRNGYMEPHYHPPHLFPAFHPPVPIDARHHEGRYHYDPSPIPPLHVPSALSSSPTYPDLPFIRISPHRNPTAASESPFSPPHPYINPYMDYIRSLHSSPSLSMISAARGLSPTDAPHAGVSPAEYYHQMALLTGQRSPYADILPSAATAGAGAIHMEYLHAMDSTRFPSPRLSARPSRKRTLSISPLSDHSFDLQTMIRTSPNSLVTILNNSRSSSSASGSYGHLSASAISPALSFTYPSAPVSLHMHQQILSRQQSLGSAFGHSPPLIHPAPTFPTQRPIPGIPTVLNPVQVSSGPSESSQSKPTSESAVSSTGDPMHNKRSKIKPDEDLPSPGSRGQQEQPEGTTLVKEEADKDESKQEPEVIYETNCHWEGCTREFDTQDQLVHHINNDHIHGEKKEFVCRWLDCSREQKPFKAQYMLVVHMRRHTGEKPHKCTFEGCTKAYSRLENLKTHLRSHTGEKPYVCEHEGCNKAFSNASDRAKHQNRTHSNEKPYVCKIPGCTKRYTDPSSLRKHVKTVHGPEAHVTKKQRGDMHPRPPPPRDSGSHSQSRSPGRPTQGAFGEQKELSNTTSKREECLQVKTVKAEKPMTSQPSPGGQSSCSSQQSPISNYSNSGLELPLTDGGSVADLSAIDETPIMDSTISTATTALALQARRNPAGTKWMEHIKLERLKQVNGMFPRLNPILPSKAPAVSPLIGNGTQSNNNYSSGGPGTLLPSRSDLSGVDFTVLNTLNRRDSNTSTISSAYLSSRRSSGISPCFSSRRSSEASQAEGRPQNVSVADSYDPISTDASRRSSEASQGDGLPSLLSLTPVQQYRLKAKYAAATGGPPPTPLPHMERLSLKTKMALLGEGRDSGVTLPPVHPPRRCSDGGGHTYRGRHLMPHDALANSVRRASDPVRTVSENMSLARVQRFSSLNSFNPPNLPPSVEKRSLVLQNYTRQESSQPRYFQASPCPPSITENVALEALTMDADANLNDEDLLPDDVVQYLNSQNQTGYGQQLQSGISEDSKVAHEPEDLDLAGLPDSHVGQEYPALEQPCSEGSKTDLPIQWNEVSSGTSDLSSSKLKCGQQRPSAQQPRGFGLYNNMVVHPHNLWKVGTGPAGGYQTLGENSSTYNGPEHFAIHSGDGLGTNGNTFHEQPFKTQQYGSQLNRQPLTSSALDHACGTGIQGSKLKGNSLQENGGLLDFSLSVAPNELAGNTVNGMQTQDQMGQGYIAHQLLSGSMQHQGPSRPGQQVLGQVGATSHINIYQGTESCLPGTQDNSSQPSSMAAIRGYQPCASYGGNRRQAMPRGNLTLQQGQLSDMSQSSRVNSIKMEAQGQSQQLCSTVQNYSGQFYDQTMGFSQQDRKAGSFSLSDANCLLQGNGTENSELLSPGANQVTSTVDSFESHDLEGVQIDFDAIIDDGDHTSLMSGALSPSIIQNLSHSSSRLTTPRASLPFPSLSMGTTNMAIGDMSSLLTSLAEESKFLAVMQ
notes: Gli3 transcription factor, mouse, the unprocessed full length form (Gli3FL band on anti-Gli3 immunoblots); also called GliFL; source: endogenous, E10.5 mouse forelimb bud lysate or E10.5 whole embryo lysate (control or Tbx3 null)
B2: Kif7, endogenous mouse protein (natural protein, mouse (endogenous in E10.5 embryos), UniProt B7ZNG0 1-1348, looked up)
chain: MGLEAQRLPGAEEAPVRVALRVRPLLPKELLHGHQSCLRVEPERGRITLGRDRHFGFHVVLGEDTGQEAVYQACVQPLLEAFFEGFNATVFAYGQTGSGKTYTMGEASVASLHEDEQGIIPRAMAEAFKLIDENDLLDCLVHVSYLELYKEEFRDLLEVGTASRDIQLREDDRGNVVLCGVKEVDVEGLDEVLSLLEMGNAARHTGATHFNRLSSRSHTVFTVTLEQRGRTPSRLPRPAAGHLLVSKFHFVDLAGSERVLKTGSTGERLKESIQINSTLLALGNVISALGDPQRRGSHIPYRDSKITRILKDSLGGNAKTVMIACVSPSSSDFDETLNTLNYASRAQNIRNRATVNWHPEAERVPEEQAAGARGPPRHRSETRIIHRGRRVPCPAVGSAAVAAGLGAECARCRARTSAAYSLLRELQAEPGLPGAAARKVRDWLCAVEGERSTLSSASGPDSGIESAPAEDQAAQGTSGRKGDEGTQQLLTLQSQVARLEEENRDFLAALEDAMEQYKLQSDRLREQQEEMVELRLRLELAQPGWGAPGLLQGLPPGSFVPRPHTAPLGGAHTHMLGMMPSTCLPGEEVSSEQQVVSGKEVKAEVLAQADKLRSASSTTSEEEGEEEEEEEEEEEEPPRRTLYLRRNGISNWSQRAGLSPGSPPDRKGPEVCPEEPAAAIPAPQAVGSGKVPVQTRQAPAAMASEWRLAQAQQKIRELAINIRMKEELIGELVRTGKAAQALNRQHSQRIRELEQEAERVRAELCEGQRQLRELEGREPQDASERSRLQEFRKRVAAAQSQVQVLKEKKQATERLVSLSAQSETRLQELERNVQLMRRQQGQLQRRLREETEQKRRLETEMNKRQHRVKELELKHEQQQKILKIKTEEIAAFQRKRRSGSNGSVVSLEQQQKIEEQKKWLDQEMEKVLQQRRALEELGEELRKREVILAKKEALMQEKTGLESKRLRSSQALNEDIVRVSSRLEHLEKELSEKSGQLRQGSAQNQQQIRGEIDTLRQEKDSLLKQRLEIDSKLRQGSLLSPEEERTLFQLDEAIEALDAAIEYKNEAITCRQRVLRASASLLSQCEMNLMAKLSYLSSSETRALLCKYFDKVVTLREEQHQQQIAFSELEMQLEEQQRLVYWLEVALERQRLEMDRQLTLQQKEHEQNVQLLLQQGRDHLGEGLADSKRQYEARIHALEKELGRHMWINQELKQKLSAGSTAGQSQGCERRSLCLENRQCLGNEDGLHPAAPEPLWQSSLLEGVSRVWDESRDLVHAPLPLTWKRSSLCSEQGSSEESRVRETTEPPVGRVLPMGEVGLSWNFGPLPKPRWEPRRTSPGMIDVRKNPL
notes: Kif7, ciliary kinesin family protein, mouse, endogenous in E10.5 forelimb buds and whole embryos; source: endogenous, E10.5 mouse forelimb bud lysate or E10.5 whole embryo lysate (control or Tbx3 null)

Experiments:
[1] = biological target: Kif7, endogenous mouse protein (mouse (endogenous in E10.5 embryos)) (UniProt B7ZNG0); experiment: co-IP; as a4, but lysates of Tbx3 null (Tbx3 delta-fl/delta-fl, ko) E10.5 embryos; Kif7-Gli3 co-precipitate compared with control (wt) embryos by densitometry
[2] = biological target: Suppressor of fused (Sufu), endogenous mouse protein (mouse (endogenous in E10.5 embryos)) (UniProt Q9Z0P7); experiment: co-IP; endogenous proteins; E10.5 whole mouse embryo lysates in Dignam buffer C, control (wt) embryos; Sufu-Gli3, Sufu-Kif7 and Tbx3-Spop also assayed in Tbx3 null (Tbx3 delta-fl/delta-fl, ko) embryos, where less Sufu-Gli3 and Sufu-Kif7 co-precipitated; 5-10 ug antibody overnight at 4 C, Protein-G Dynal beads, immunoblot, densitometry
[3] = biological target: B2; experiment: co-IP; as a4, but lysates of Tbx3 null (Tbx3 delta-fl/delta-fl, ko) E10.5 embryos; Kif7-Gli3 co-precipitate compared with control (wt) embryos by densitometry; settings: partners not purified
[4] = biological target: T1, Suppressor of fused (Sufu), endogenous …; experiment: co-IP; endogenous proteins; E10.5 whole mouse embryo lysates in Dignam buffer C, control (wt) embryos; Sufu-Gli3, Sufu-Kif7 and Tbx3-Spop also assayed in Tbx3 null (Tbx3 delta-fl/delta-fl, ko) embryos, where less Sufu-Gli3 and Sufu-Kif7 co-precipitated; 5-10 ug antibody overnight at 4 C, Protein-G Dynal beads, immunoblot, densitometry; settings: partners not purified
[5] = biological target: T2, Gli3, endogenous mouse protein as precipitated by anti-Gli3 (Gli3FL and Gli3R not told apart) (mouse (endogenous in E10.5 embryos), UniProt Q61602 1-1583); experiment: co-IP; as a4, but lysates of Tbx3 null (Tbx3 delta-fl/delta-fl, ko) E10.5 embryos; Kif7-Gli3 co-precipitate compared with control (wt) embryos by densitometry; settings: partners not purified
T2 construct: Gli3 transcription factor, mouse, endogenous; Used only for the lanes in which Gli3 was the bait (IP with anti-Gli3, blot for the partner); the forms Gli3FL and Gli3R are told apart only on anti-Gli3 blots; also called endogenous Gli3; Gli3 proteins; source: endogenous, E10.5 mouse forelimb bud lysate or E10.5 whole embryo lysate (control or Tbx3 null)

fold more co-precipitated in Tbx3 mutants than in controls [1]: 3.3 fold
Molecule: Gli3 repressor form (Gli3R), endogenous mouse protein (from UniProt Q61602 1-1583)

band intensity ratio of control to mutant [1]: 0.25
fold more co-precipitated in controls than in Tbx3 mutants [2]: > 9 fold
Molecule: Gli3 repressor form (Gli3R), endogenous mouse protein (from UniProt Q61602 1-1583) (domain or fragment)

Molecule: B1
band intensity ratio of control to mutant [3]: 0.1
fold more co-precipitated in controls than in Tbx3 mutants [4]: 4.6 fold

Molecule: B2
band intensity ratio of control to mutant [5]: 0.1
